# In patent publication US20220096649A1 (TALLAC THERAPEUTICS, published 2022):
# Substitutions are numbered along the chain they refer to. Numbers in names are those of the source.
# T1: SIRP-α mouse BL6 (mouse (BL6), UniProt P97797 32-150, limits assumed)
# T1 construct: Soluble analyte in SPR
# T1 sequence (looked up): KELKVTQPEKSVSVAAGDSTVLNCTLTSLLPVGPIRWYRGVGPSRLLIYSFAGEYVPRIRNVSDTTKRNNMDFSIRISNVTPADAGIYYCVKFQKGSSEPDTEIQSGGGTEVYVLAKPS
# T2: SIRP-α cynomolgus (cynomolgus, UniProt A0A2K5VYQ9 31-148)
# T2 construct: Soluble analyte in SPR; also called cynomologous monkey SIRP-α
# T2 sequence: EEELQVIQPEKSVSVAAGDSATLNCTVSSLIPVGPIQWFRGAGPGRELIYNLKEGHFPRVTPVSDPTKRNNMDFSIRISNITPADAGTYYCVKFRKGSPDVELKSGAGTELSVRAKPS
# B1: Anti-SIRP-α antibody 119, light chain Mut, heavy chain wt (antibody, V domains shown)
# VH: EVQLLESGGGVVQPGGSLRLSCAASGFSFSNFAMTWVRQAPGEGLEWVSTIGSGDTYYADSVKGRFTISRDNSKNTLYLQMNSLRAEDTAVYYCAKDSTVSWSGDFFDYWGLGTLVTVSS
# VL: EIVLTQSPATLSVSPGERATLSCRASQNVKNDLAWYQQKPGQAPRLLIYAARIRETGIPARFSGSGSGTEFTLTISSLQSEDFAVYYCQQYYDWPPFTFGGGTKVEIK
# notes: Whole antibody; Light chain mut = F21L, R39K, E60A, T76S
# B2: Anti-SIRP-α antibody 135, light chain wt, heavy chain Mut_V34M (antibody, V domains shown)
# VH: B1 VH with L5V, N31I, F32Y, T35S, E43K, S53A, G54D, S101G, L112Q
# VL: EIVLTQSPATLSVSPGERVTFSCRASQNVRSDIAWYQQKPGQAPRLLIYAASSRDTGIPDRFSGSGSGTDFTLTISSLQSEDFGVYYCQQYYDWPPFTFGGGTKVEIK
# notes: Whole antibody
# B3: Anti-SIRP-α antibody 135, light chain wt, heavy chain wt (antibody, V domains shown)
# VH: B1 VH with E1D, L5V, Q13R, G16E, N31I, F32Y, T35S, S53A, G54D, S101G
# VL: B2 VL
# notes: Whole antibody
# B4: Anti-SIRP-α antibody 119, light chain Mut, heavy chain Mut (antibody, V domains shown)
# VH: B1 VH with M34V, E43K, L112Q
# VL: B1 VL
# notes: Whole antibody
# B5: Anti-SIRP-α antibody 119, light chain Mut, heavy chain Mut_V34M (antibody, V domains shown)
# VH: B1 VH with E43K, L112Q
# VL: B1 VL
# notes: Whole antibody
# B6: Anti-SIRP-α antibody 119, light chain wt, heavy chain wt (antibody, V domains shown)
# VH: B1 VH
# VL: B1 VL with L21F, K39R, A60E, S76T
# notes: Whole antibody (FreeStyle 293-FS, protein A purified)
# B7: Anti-SIRP-α antibody 135, light chain wt, heavy chain Mut (antibody, V domains shown)
# VH: B1 VH with L5V, N31I, F32Y, M34V, T35S, E43K, S53A, G54D, S101G, L112Q
# VL: B2 VL
# notes: Whole antibody; Heavy chain mut = D1E, R13Q, E16G, M34V, E43K, L112Q
# B8: Anti-SIRP-α antibody 135, light chain Mut, heavy chain wt (antibody, V domains shown)
# VH: B1 VH with E1D, L5V, Q13R, G16E, N31I, F32Y, T35S, S53A, G54D, S101G
# VL: B2 VL with F21L, D60A
# notes: Whole antibody; Light chain mut = F21L, D60A
# B9: Anti-SIRP-α antibody 136, light chain wt, heavy chain Mut (antibody, V domains shown)
# VH: EVQLVESGGGVVQPGRSLRLSCAASGFTFSSYDVNWVRQAPGKGLEWVSLISGSGEIIYYADSVKGRFTISRDNSKNTLYLQMNSLRAEDTAVYYCAKENNRYRFFDDWGQGTLVTVSS
# VL: ETVLTQSPGTLTLSPGERATLTCRASQSVYTYLAWYQEKPGQAPRLLIYGASSRATGIPDRFSGSGSGTEFTLTISSLQSEDFAVYYCQQYYDRPPLTFGGGTKVEIK
# notes: Whole antibody; Heavy chain mut = D1E, R13Q, E16R, M34V, E43K, L111Q
# B10: Anti-SIRP-α antibody 136, light chain Mut, heavy chain Mut (antibody, V domains shown)
# VH: B9 VH
# VL: B9 VL with T2I, T12S, T22S, E38Q
# notes: Whole antibody
# B11: Anti-SIRP-α antibody 136, light chain Mut, heavy chain wt (antibody, V domains shown)
# VH: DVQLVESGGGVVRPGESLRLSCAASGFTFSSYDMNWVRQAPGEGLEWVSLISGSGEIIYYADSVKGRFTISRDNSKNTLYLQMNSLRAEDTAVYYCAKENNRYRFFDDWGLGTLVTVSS
# VL: B9 VL with T2I, T12S, T22S, E38Q
# notes: Whole antibody; Light chain mut = T2I, T12S, T22S, E38Q
# B12: Anti-SIRP-α antibody 136, light chain Mut_I2T, heavy chain Mut_V34M (antibody, V domains shown)
# VH: B9 VH with V34M
# VL: B9 VL with T12S, T22S, E38Q
# notes: Whole antibody
# B13: Anti-SIRP-α antibody 136, light chain wt, heavy chain wt (antibody, V domains shown)
# VH: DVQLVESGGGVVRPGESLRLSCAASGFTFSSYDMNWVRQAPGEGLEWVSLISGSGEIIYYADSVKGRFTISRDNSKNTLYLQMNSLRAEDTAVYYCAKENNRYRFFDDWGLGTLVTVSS
# VL: B9 VL
# notes: Whole antibody
# B14: Anti-SIRP-α antibody 136, light chain Mut_S12T, heavy chain Mut (antibody, V domains shown)
# VH: B9 VH
# VL: B9 VL with T2I, T22S, E38Q
# notes: Whole antibody
# B15: Anti-SIRP-α antibody 136, light chain Mut_Q38E, heavy chain Mut (antibody, V domains shown)
# VH: B9 VH
# VL: B9 VL with T2I, T12S, T22S
# notes: Whole antibody
# B16: Anti-SIRP-α antibody 136, light chain Mut_I2T, heavy chain Mut (antibody, V domains shown)
# VH: B9 VH
# VL: B9 VL with T12S, T22S, E38Q
# notes: Whole antibody
# B17: Anti-SIRP-α antibody 136, light chain Mut_S22T, heavy chain Mut (antibody, V domains shown)
# VH: B9 VH
# VL: B9 VL with T2I, T12S, E38Q
# notes: Whole antibody
# B18: Hum1/AB21_HC_Mutall (antibody, V domains shown)
# VH: EVQLVESGGGVVQPGGSLRLSCAASGFTFSSNAMSWVRQAPGKGLEWVAGISAGGSDTYYPASVKGRFTISRDNSKNTLYLQMNSLRAEDTAVYYCARETWNHLFDYWGQGTLVTVSS
# VL: SYELTQPPSVSVSPGQTARITCSGGSYSSYYYAWYQQKPGQAPVTLIYSDDKRPSNIPERFSGSSSGTTVTLTISGVQAEDEADYYCGGYDQSSYTNPFGGGTKLTVL
# notes: Whole antibody
# B19: Hum9/AB21_HC_Mutall (antibody, V domains shown)
# VH: B18 VH
# VL: B18 VL with S26A, T45L, L46V, N56G
# notes: Whole antibody
# B20: Anti-SIRP-α antibody 119, light chain wt, heavy chain Mut (antibody, V domains shown)
# VH: B1 VH with M34V, E43K, L112Q
# VL: B1 VL with L21F, K39R, A60E, S76T
# notes: Whole antibody; Heavy chain mut = D1E, E43K, L112Q, M34V
# Target: T3, Human SIRPγ (human, UniProt Q9P1W8 29-147, limits assumed)
# T3 construct: Soluble analyte in SPR
# T3 sequence (Q9P1W8 29-147 limits assumed): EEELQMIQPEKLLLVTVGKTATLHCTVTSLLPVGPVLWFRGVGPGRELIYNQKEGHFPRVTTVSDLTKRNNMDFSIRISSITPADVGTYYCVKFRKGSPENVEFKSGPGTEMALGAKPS
# Assay: SPR, antibody on GLC chip, SIRP as analyte
# Method: (§1) The running buffer was PBS pH 7.4 with 0.01% TWEEN-20 (PBST+). All analytes were used at their nominal concentrations as determined by A280 absorbance and using their molar calculated extinction coefficient. Analytes were injected in a “one-shot” kinetic mode as described (see, e.g., Bravman et al., Anal. Biochem. 2006, 358, 281-288).
# (§2) For the method using a GLC chip, the analytes were injected and flowed over anti-SIRPα antibodies immobilized (˜1000 RUs) on GLC chips using Proteon Amine Coupling Kit. For the immobilization step, the GLC chip was activated with EDAC/Sulpho-NHS 1:1 (Biorad) diluted 1/100 for 300 s at 25 μL/min. Anti-SIRPα antibodies were diluted to 80 nM concentration in 10 mM sodium acetate buffer pH 4.5 and immobilized to the chip at 30 μL/min for 50 s. Chip was inactivated with ethanolamine for 300 s at 25 μL/min. The analytes (e.g., SIRP-α from different species, SIRP-β, SIRP-γ) were injected in a “one-shot” kinetic mode at nominal concentrations of 100, 33, 11, 3.7, 1.2, and 0 nM. Association times were monitored for 90 s at 100 uL/min, and dissociation times were monitored for 1200 s. The surfaces were regenerated with a 2:1 v/v blend of Pierce IgG elution buffer/4M NaCl.
# (§3) Biosensor data were double-referenced by subtracting the interspot data (containing no immobilized protein) from the reaction spot data (immobilized protein) and then subtracting the response of a buffer “blank” analyte injection from that of an analyte injection. Double-referenced data were fit globally to a simple Langmuir model and the KD value was calculated from the ratio of the apparent kinetic rate constants (KD=kd/kₐ).
row,Binder,Kd [nM]
1,B1,0.23
2,B2,0.53
3,B3,0.54
4,B4,0.34
5,B5,0.26
6,B6,0.27
7,B7,0.78
8,B8,0.52
9,B9,17
10,B10,1.7
11,B11,20
12,B12,34
13,B13,24
14,B14,67
15,B15,19
16,B16,40
17,B17,62
18,B18,0.001
19,B19,0.035

# Target: T1, SIRP-α mouse BL6
# Assay: SPR, antibody on GLC chip, SIRP as analyte
# Method: as §1, §2, §3
Binder,binding result,Kd [nM]
B1,no binding (tested: 100 nM (highest analyte concentration)),–
B2,no binding (tested: 100 nM (highest analyte concentration)),–
B3,no binding (tested: 100 nM (highest analyte concentration)),–
B20,no binding (tested: 100 nM (highest analyte concentration)),–
B4,no binding (tested: 100 nM (highest analyte concentration)),–
B5,no binding (tested: 100 nM (highest analyte concentration)),–
B6,no binding (tested: 100 nM (highest analyte concentration)),–
B7,no binding (tested: 100 nM (highest analyte concentration)),–
B8,no binding (tested: 100 nM (highest analyte concentration)),–
B9,–,23
B10,–,32
B11,–,33
B12,–,14
B13,–,13
B14,–,16
B15,–,33
B16,–,15
B17,–,13
B18,–,9.5

# Target: T2, SIRP-α cynomolgus
# Assay: SPR, antibody on GLC chip, SIRP as analyte
# Method: as §1, §2, §3
row,Binder,Kd [nM]
1,B1,0.14
2,B2,0.08
3,B3,0.097
4,B20,0.16
5,B4,0.2
6,B5,0.12
7,B6,0.11
8,B7,0.13
9,B8,0.1
10,B12,2.1
11,B18,0.029
12,B19,0.22

# Target: T4, SIRP-α human v2 (human, UniProt P78324 31-149, limits assumed)
# T4 construct: Soluble analyte in SPR
# T4 sequence (P78324 other isoform, or with tags, fused parts or gaps limits assumed): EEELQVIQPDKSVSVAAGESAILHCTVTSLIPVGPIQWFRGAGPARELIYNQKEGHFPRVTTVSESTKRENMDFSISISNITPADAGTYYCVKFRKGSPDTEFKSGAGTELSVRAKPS
# Assay: SPR, antibody on GLC chip, SIRP as analyte
# Method: as §1, §2, §3
row,Binder,Kd [nM]
1,B1,0.086
2,B2,0.016
3,B3,0.029
4,B20,0.069
5,B4,0.088
6,B5,0.069
7,B6,0.068
8,B7,0.02
9,B8,0.027
10,B9,1.7
11,B10,20
12,B11,17
13,B12,17
14,B13,1.6
15,B14,11
16,B15,13
17,B16,1.8
18,B17,8.3
19,B18,0.0046
20,B19,0.12

# Target: T5, Human SIRPβ (human, UniProt O00241 30-148)
# T5 construct: Soluble analyte in SPR
# T5 sequence (O00241 30-148): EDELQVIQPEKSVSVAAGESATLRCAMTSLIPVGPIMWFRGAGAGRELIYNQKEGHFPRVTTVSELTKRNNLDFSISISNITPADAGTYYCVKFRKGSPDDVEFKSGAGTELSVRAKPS
# Assay: SPR, antibody on GLC chip, SIRP as analyte
# Method: as §1, §2, §3
row,Binder,Kd [nM]
1,B2,0.16
2,B4,0.46
3,B5,0.34
4,B6,0.34
5,B9,3.5
6,B12,2.2
7,B13,4.4
8,B16,3.2
9,B18,0.0067
10,B19,0.057
